According to patent US20110293526A1, “COMPOSITIONS AND METHODS TO MODULATE HAIR GROWTH” (University of Southern California, priority 2008, published 2011):

B1: human BMP4: Recombinant human BMP4 protein obtained from R&D Systems (protein, UniProt P12644 293-408, looked up)
Bone morphogenetic protein 4: SPKHHSQRARKKNKNCRRHSLYVDFSDVGWNDWIVAPPGYQAFYCHGDCPFPLADHLNSTNHAIVQTLVNSVNSSIPKACCVPTELSAISMLYLDEYDKVVLKNYQEMVVEGCGCR

Experiments:
[1] = DMSO; cited from earlier work
[2] = in published reports; cited from earlier work
[3] = system: competent telogen skin; assay: Protein administration experiment: human BMP4-soaked beads implanted into competent telogen skin ahead of an anagen-spreading wave; type: in vivo, mice; conditions: for propagation of the anagen-spreading (hair propagation) wave around the beads: beads soaked in human BMP4 1 mg per ml, implanted in competent telogen skin of adult mice, protein replenished every 24 h, twelve days later, versus control BSA/albumin beads
Description: Intracutaneous administration of exogenous protein was performed as follows. Affinity chromatography Affi-gel blue gel beads were obtained from Biorad. Beads were washed in 1×PBS, followed by drying. The beads were then re-suspended in 5 μl protein solution, either control (BSA 1 mg ml^−1) or experimental (human BMP4 1 mg per ml), at 4° C. for 30 min. Recombinant human BMP4 protein was obtained from R&D Systems. Reconstitution of the protein was performed in 4 mM HCl in 0.2% BSA as per the manufacturer's guidelines. Approximately 100 beads were introduced to the competent telogen skin of adult mice by means of a single puncture wound to the skin made by a 30 g syringe (insulin syringe). To replenish proteins, subsequent doses of 1.5 μl protein solution were microinjected to the site of the bead implantation every 24 h by means of a glass micro-needle until the tissue was harvested. After the anagen-spreading wave was noted to pass beyond the bead implantation sites (1 week in the case of FIGS. 2g, h), the skin was collected and inverted for photography. This allows the study of the anagen-wave-spreading dynamics around the control and human BMP4 beads.
Finally, it was tested whether a direct local delivery of BMP protein can convert competent telogen status to refractory in normal mice. Human-BMP4-soaked beads were implanted into competent telogen skin ahead of an anagen-spreading wave (see Methods in Botchkarev et al. (2001) FASEB J. 15:2205-14). […] Thus, the level of BMP activity can indeed explain the functional status (refractory versus competent) of a skin region.

Molecule	solubility [1]	toxicity [2]	propagation of the anagen-spreading (hair propagation) wave around the beads [3]	propagation of the anagen-spreading (hair propagation) wave around the beads ([3]; listed as Human-BMP4)	propagation of the anagen-spreading (hair propagation) wave around the beads ([3]; listed as hBMP4)	status of treated skin and hair regeneration after intracutaneous delivery ([3]; delivered intracutaneously via single glass microneedle during competent telogen phase)
c1cc(-c2cnn3cc(-c4ccc(OCCN5CCCCC5)cc4)cnc23)ccn1 [Dorsomorphin]	soluble in DMSO	low toxicity				
B1			prevented the propagation of the wave around the beads	caused hair propagation wave (solid arrow) to go around them, creating a new telogen domain	caused hair propagation wave (solid arrowed curve) to go around them, creating a new telogen domain	rendered treated skin refractory and prevented hair regeneration
